These results are taken from publication PMC5046105, “Improved affinity at the cost of decreased specificity: a recurring theme in PDZ-peptide interactions” (Scientific Reports, 2016).

Ends that are not written are not given here.

The test system of one experiment is PDZØ9. The experiment in a line: Proteomic peptide-phage display (ProP-PD) selection, PDZØ9 as bait. Set-up: species or system human. The following applies: number of this peptide among 76 sequenced binding clones after round three of ProP-PD selection. How it is done:
(§1) The peptide-phage library used in the selections consisted of 50,549 heptapeptides representing the C-terminal sequences of the human proteome, fused to the C-terminus of the major coat protein pVIII of the M13 phage. This library was developed and successfully used for the rapid isolation of potential cellular PDZ domain targets, as previously reported.
(§2) Individual binding clones were isolated and sequenced (see Table 1).
(§3) Peptide-phage selections against PDZØ9 and pWT PDZ2 were performed with a previously developed library of 50549 heptapeptides, representing all of the C-terminal sequences in the human proteome. Peptides are fused to the C-terminus of the gene-8 major coat protein of M13 phage and hereby referred to as the naïve peptide library. Each of the two selections was performed twice. First, the two lipoyl-PDZ proteins were used to coat 96-well Maxisorp microtiter plates (NUNC) by incubation overnight at 4 °C (15 μg of protein in 100 μl of PBS per well). For the first round of selection, two wells were used for each PDZ, whereas a single well was used for the following selections. In parallel, wells were coated with lipoyl domain alone in order to remove nonspecific binders by a preselection step. The following day, wells were blocked with 200 μl of 0.5% BSA in PBS for 1 h at 4 °C, and washed four times with PT buffer [PBS, 0.05% Tween-20] before addition of phages. Phage pools representing the naïve peptide library were diluted 50-fold in PBS, precipitated with PEG/NaCl [4% PEG-8000 and 0.5 M NaCl] by incubation for 10 min on ice, pelleted by centrifugation (10 min, 16000 × g), and resuspended in PBS. For each selection round, 100 μl of resuspended phage was added to the preselection wells and incubated for 1 h at 4 °C before transfer to the target wells in which they were incubated for 2 h at 4 °C. The wells were washed five times with PT buffer and bound phages were eluted by direct infection of bacteria through the addition of 100 μl log-phase Escherichia coli Omnimax (Invitrogen) in 2TY, followed by 30 min incubation at 37 °C with shaking. Phage production was initiated by the addition of M13K07 helper phage (New England Biolabs) to a final concentration of 10^10 phage/ml and continued incubation at 37 °C for 45 min. The cultures were then transferred to 10 ml 2TY containing 100 μg/ml carbenicillin, 30 μg/ml kanamycin, and 1 mM IPTG, and shaken overnight at 37 °C. The bacteria were pelleted by centrifugation (10 min, 5300 × g), and the phage-containing supernatant was transferred to a new tube in which phages were precipitated with PEG/NaCl as described above, pelleted by centrifugation (15 min, 5300 × g), and resuspended in 1 ml of PBS. The resuspended phages, hereby-denoted Øout, were then used for the next round of selection. A total of five rounds were carried out and the enrichment of phages specific for the target was monitored by analysing aliquots of Øout in a phage ELISA performed as described below. For each of the five rounds of the respective selection, 10 μg of target protein and lipoyl domain were individually coated in parallel wells using the same type of plate, procedure, and blocking the following day, as described for the selection rounds above. When the 200 μl of blocking solution had been aspirated, 100 μl of resuspended phage was added and incubated for 30 min at 4 °C.

The next experiment has as its system pWT PDZ2. The experiment in a line: Proteomic peptide-phage display (ProP-PD) selection, pWT PDZ2 as bait. The following applies: number of this peptide among 71 sequenced binding clones after round three of ProP-PD selection. More on the design: species or system human. The protocol:
as §1, §2, §3

For experiment [1], the target named is pWT PDZ2 L391F (human) (UniProt Q12959). Description: stopped-flow spectroscopy.
In another experiment the target is pWT PDZ2 K392M (human) (UniProt Q12959). Description: stopped-flow spectroscopy.
Experiment [2] has as its target Pseudo wild type SAP97 PDZ2 (second PDZ domain of synapse associated protein 97, I342W/C378A) (human) (UniProt Q12959). The experiment in a line: stopped-flow spectroscopy.
The target of experiment [3] is PDZØ9, engineered variant (L391F/K392M) of pWT SAP97 PDZ2 (human) (UniProt Q12959). The experiment in a line: stopped-flow spectroscopy.
Experiment [4] has as its target pWT PDZ2 L391F (human) (UniProt Q12959). Description: ITC; PGKETQL peptide titrated into pWT PDZ2 L391F; iTC200, 10 °C, 50 mM potassium phosphate, pH 7.5; 1:1 model; duplicate titrations, average parameters.

pWT PDZ2 K392M (human), sequence (Q12959 311-407, stated change not applied): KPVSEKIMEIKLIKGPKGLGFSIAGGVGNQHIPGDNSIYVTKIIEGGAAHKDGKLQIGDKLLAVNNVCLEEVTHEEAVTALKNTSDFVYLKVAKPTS
Pseudo wild type SAP97 PDZ2 (second PDZ domain of synapse associated protein 97, I342W/C378A) (human), sequence (Q12959 311-407, stated change not applied): as the sequence (Q12959 311-407, stated change not applied) above
PDZØ9, engineered variant (L391F/K392M) of pWT SAP97 PDZ2 (human), sequence (Q12959 311-407, stated change not applied): as the sequence (Q12959 311-407, stated change not applied) above
pWT PDZ2 L391F (human), sequence (Q12959 311-407, stated change not applied): as the sequence (Q12959 311-407, stated change not applied) above

For KIKETTV, the “Prevalence, PDZØ9 (76)” value with PDZØ9 came out at 1. Moreover, the “Prevalence, pWT PDZ2 (71)” value with pWT PDZ2 worked out at 3.
On the same counts, the results for WKHETTV are 4 and 5.
In the case of IKTETTV, the “Prevalence, PDZØ9 (76)” value in the experiment on PDZØ9 is 1. The “Prevalence, pWT PDZ2 (71)” value with pWT PDZ2 amounted to 7.
Consider RAISTDV, for which, in the experiment with PDZØ9, the “Prevalence, PDZØ9 (76)” value stood at 2.
Take WKSETTV: in the experiment with PDZØ9, the “Prevalence, PDZØ9 (76)” value came out at 1. In addition, the “Prevalence, pWT PDZ2 (71)” value in the experiment on pWT PDZ2 came to 1.
Take AGRETTV: the “Prevalence, pWT PDZ2 (71)” value in the experiment with pWT PDZ2 is 1.
Turning to YKKETPL, the “Prevalence, PDZØ9 (76)” value with PDZØ9 stood at 1.
Turning to AGKTTIL, in the experiment on PDZØ9, the “Prevalence, PDZØ9 (76)” value worked out at 1.
Take WKNETTV: the “Prevalence, PDZØ9 (76)” value with PDZØ9 is 1. Further, in the experiment with pWT PDZ2, the “Prevalence, pWT PDZ2 (71)” value was 1.
On to KGTETTL, for which, in the experiment on PDZØ9, the “Prevalence, PDZØ9 (76)” value worked out at 1.
Turning to SARSTDV [SARSTDV peptide (C-terminus of anoctamin-9)], the koff (usually the rate constant with which the complex falls apart) with pWT PDZ2 L391F (human) [1] stood at 4 s⁻¹; with pWT PDZ2 K392M (human), 25 s⁻¹; in experiment [2], 26 s⁻¹; in experiment [3], 3.4 s⁻¹. Moreover, the kon (usually the rate constant with which the complex forms) came to 1.8e+07 M⁻¹ s⁻¹ with pWT PDZ2 L391F (human) [1], 1.2e+07 M⁻¹ s⁻¹ in the experiment with pWT PDZ2 K392M (human), 1.6e+07 M⁻¹ s⁻¹ in experiment [2] and 1.3e+07 M⁻¹ s⁻¹ in experiment [3].
On to Ac-VSKETPL [VSKETPL peptide (C-terminus of mitogen-activated protein kinase 12, p38γ)], for which the koff with pWT PDZ2 L391F (human) [1] amounted to 8.8 s⁻¹; with pWT PDZ2 K392M (human), 150 s⁻¹; in experiment [2], 154 s⁻¹; in experiment [3], 6.3 s⁻¹. Besides, the kon is 1.1e+07 M⁻¹ s⁻¹ with pWT PDZ2 L391F (human) [1], 2.4e+07 M⁻¹ s⁻¹ in the experiment with pWT PDZ2 K392M (human), 4e+07 M⁻¹ s⁻¹ in experiment [2] and 8.4e+06 M⁻¹ s⁻¹ in experiment [3].
Ac-NSKETVV [NSKETVV peptide (C-terminus of E3 ubiquitin-protein ligase MARCH3)]: the koff with pWT PDZ2 L391F (human) [1] worked out at 1.9 s⁻¹; in the experiment with pWT PDZ2 K392M (human) it was 7.7 s⁻¹; in experiment [2], 8.6 s⁻¹; in experiment [3] it was 1.6 s⁻¹. The kon with pWT PDZ2 L391F (human) [1] came out at 1.3e+07 M⁻¹ s⁻¹; in the experiment with pWT PDZ2 K392M (human), 9.7e+06 M⁻¹ s⁻¹; in experiment [2], 1.3e+07 M⁻¹ s⁻¹; in experiment [3] it was 1e+07 M⁻¹ s⁻¹.
As to Ac-EKKHTLL [EKKHTLL peptide (C-terminus of E9PN86_HUMAN, partial transcript of EIF3M_HUMAN)], the koff with pWT PDZ2 L391F (human) [1] was 7.1 s⁻¹; in the experiment with pWT PDZ2 K392M (human) it was 157 s⁻¹; in experiment [2] it was 112 s⁻¹; in experiment [3], 7.9 s⁻¹. Further, the kon with pWT PDZ2 L391F (human) [1] was 1.1e+07 M⁻¹ s⁻¹; in the experiment with pWT PDZ2 K392M (human) it was 1.1e+07 M⁻¹ s⁻¹; in experiment [2] it was 1.2e+07 M⁻¹ s⁻¹; in experiment [3] it was 1.4e+07 M⁻¹ s⁻¹.
With Ac-YRRESAI [YRRESAI peptide (C-terminus of inward rectifier potassium channel 4, Kir2.3)], the dissociation rate constant (koff) in the experiment with pWT PDZ2 L391F (human) [1] amounted to 15 s⁻¹; in the experiment with pWT PDZ2 K392M (human), 105 s⁻¹; in experiment [2], 87 s⁻¹; in experiment [3] it was 17 s⁻¹. In addition, the kon with pWT PDZ2 L391F (human) [1] is 1.9e+07 M⁻¹ s⁻¹; with pWT PDZ2 K392M (human), 2.5e+07 M⁻¹ s⁻¹; in experiment [2], 1.9e+07 M⁻¹ s⁻¹; in experiment [3], 2.2e+07 M⁻¹ s⁻¹.
Turning to Ac-TSRETDL [TSRETDL peptide (C-terminus of potassium voltage-gated channel subfamily A member 5, Kv1.5)], the koff with pWT PDZ2 L391F (human) [1] amounted to 3.8 s⁻¹; with pWT PDZ2 K392M (human), 62 s⁻¹; in experiment [2], 71 s⁻¹; in experiment [3], 2.6 s⁻¹. Besides, the kon in the experiment with pWT PDZ2 L391F (human) [1] stood at 1.8e+07 M⁻¹ s⁻¹; in the experiment with pWT PDZ2 K392M (human), 1.5e+07 M⁻¹ s⁻¹; in experiment [2] it was 3.3e+07 M⁻¹ s⁻¹; in experiment [3], 1.5e+07 M⁻¹ s⁻¹.
Turning to Ac-PGKETQL [PGKETQL peptide (C-terminus of SO1C1_HUMAN)], the koff came out at 5 s⁻¹ with pWT PDZ2 L391F (human) [1], 48 s⁻¹ in the experiment with pWT PDZ2 K392M (human), 51 s⁻¹ in experiment [2] and 3.9 s⁻¹ in experiment [3]. The kon with pWT PDZ2 L391F (human) [1] came to 2e+07 M⁻¹ s⁻¹; with pWT PDZ2 K392M (human) it was 1.8e+07 M⁻¹ s⁻¹; in experiment [2], 1.8e+07 M⁻¹ s⁻¹; in experiment [3] it was 1.6e+07 M⁻¹ s⁻¹. Besides, the Kd (usually the equilibrium constant for the complex coming apart) with pWT PDZ2 L391F (human) [4] was 310 nM. In addition, the stoichiometry N (in general, the number of molecules, sites or subunits per partner or assembly) with pWT PDZ2 L391F (human) [4] was 0.76.
